Experiment: yeast display, Sf9 membrane polyspecificity reagent, FACS + sequencing; frameworks hold sequencing errors
In short: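 Sorting gates, low and high (top ~1%), were placed on anti-HA fluorescence to track expression and on streptavidin fluorescence to track reagent binding. A clone's polyreactivity label is taken from the gate it came out of. The reagent was 10% biotinylated, detergent-solubilized Sf9 membrane, applied for 1 hour at 4 °C to galactose-induced yeast display cells.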

Row | Sequence | polyreactivity (PSR sort gate)
1 | QVQLVESGGGLVQAGGTLRLSCAASGSTFTDYDMGWYRQAPGQERELVAAITSGGSTNYADSVKGRFTISRDNAKNTVYLQMNSLKPEDTAVYYCAAADADRKYDFWGQGTQVTVSS | low polyreactivity
2 | QVQLVESGGGLVQAGGTLRLSCAASGSTFWRNTMEWYRQAPGKERELVAAITGCGGRTYYADSVKGRFTISRDNAKNTVYLQMNSLKPEDTAVYYCAADGRGVHYDYWGQGSQVTVSS | high polyreactivity
3 | QVQLVESGGGLVQAGGTLRLSCAASGSTSSNNAMGWYRQAPGKARELVADISTNGDSTSYADSVKGRFTISRDNAKNPVYLLMNSLKPEDTAVYYSAASTYVTYWEYDYWGQGTQVTVSS | low polyreactivity
4 | QVQLVESGGGLVQAGGTLRLSCAASGYIFDRNAMGWYRPAPGKERELVAAITKRGGSTYYADSVKGRFTISRDNAKNTVYLQMNSLKPEETAVYYCNALARSSRYDYWGQGTQVTVSS | low polyreactivity
5 | QVQLVESGGGLVQAGGTLRLSCAATGRILHIYAMGWYRQAPGKERELVAVISTGGGDTYYADSVKGRFTISRDNANNTVYLQMNSRKPEDTAVYYCAADGYWAGYGYDYWGQGTQVTVSS | high polyreactivity
6 | QVQLVESGGGLVQAGGTLRLSCAPSGRIFGIYDMGWYRQAPGKERELVADIDVSDGSTYYADSVKGRFTISRDNAKNTVYLQMNSMKPEDTAVYYCNAEDSSRWYDWYLHDYWGQGTQVTVSS | high polyreactivity
7 | QVQLVESGGGLVQAGGTLRLSCAPSGYTFVYNAMGWYRQAPGKEREFVAAISWSGTSTRYADSVKGRFTISRDNAKNTVYLQMNSLKPEDTAVYYCAARRRSAQSGSYNHWGQGTQVTVST | high polyreactivity
8 | QVQLVESGGGLVQAGGTLRLSCAPYGIILYRIGMGWYRQAPGKERELVAAISWSTGSTYYADSEKGRFTISRDNAKNTVYLQMNSLKPEDTAVYYCATDYGGYSFGMYYWGQGTQVTVSS | low polyreactivity
9 | QVQLVESGGGLVQAGGTLRLSCASSGRIFYHYAMGWDRQAPGKERELVAAISTHTGTTYYADSVKGRFTISRDNAKNTVYLQMNSLKPEDTAVYYCAKRSRYGYGKSYDYWGQGTQVTVST | high polyreactivity
10 | QVQLVESGGGLVQAGGTLRLSCDPSGRTFYYYAMGWYRQAPGKERELVATIRSTGSTNYADSVKGRFTISRDNAKNTVYLKMNSLKPEDTAVYYCAAKPLQGVRRVEYWGQGTQVTVSS | high polyreactivity
11 | QVQLVESGGGLVQAGGTLRLSCSASGSTFAINAMGWYRQPPGKERELVATITSGSNTNNADSVKGRFTISRDNAKNTVDLQMNSLNPEDTAVYYCAAAFGYRFHYGYFYIYDYWGQGTQVTVSS | high polyreactivity
12 | QVQLVESGGGLVQAGGTLSLSCAASGRTFVSYTMGWYRQAPGKERELVAAINYSVASTNYADSVKGRFTISRDNAKNSVYLQMNSLKPEDTAVYYCNRASAVWGQGTQVTVSS | low polyreactivity
13 | QVQLVESGGGLVQAGRSLRLICAASGFTFYSYAMGWYRQAPGKERELVANITIGGSTYADSVKGRFTISRDNAKNTVYLQMNSLKPEDTAVYYCARGYRVVGDPLYGDYDYWGQGTQVTVSS | low polyreactivity
14 | QVQLVESGGGLVQAGRSLRLNCAASGSIFYYYAMGWYRPAPGKERELVAAISRNGGSTSYADSVKGRFTISRDNAKNTVYLQMNSLKPEDTAVYYCNTYGGYKYDYWGQGTQVTVSS | low polyreactivity
15 | QVQLVESGGGLVQAGRSLRLSCAASGFIYPYNALGWYRQAPGKERELVAGITWRGASTYYADSVKGRFTISRDNAKNSVYLQMNRLKPEDTAVDYCAAAYRRVTTKTFKLDYWGQGTQVTVSS | high polyreactivity
16 | QVQLVESGGGLVQAGRSLRLSCAASGITFDDYDMGCYRQAPGKEREFVAAISFSGSSTYYADSVKGRFTISRDNAKNTVYLLMNSLKPEDTAVYYCNADYVYSGCLYYGKDYWFDYWGHGTQVTVSS | low polyreactivity
17 | QVQLVESGGGLVQAGRSLRLSCAASGITFQYYAMGGYRQAPGKERELVAAISSGGSTYYADSVKGRFTISRDNAKNTVYLQMNSLKPEDTAVYYCAAKRVFFGLNYDYWGQGTQVTVSS | high polyreactivity
18 | QVQLVESGGGLVQAGRSLRLSCAASGITFYKNAMGWYRQAPGKERELVAAISSGGATTYADSVKGRFTISRDNAKNTVYLQMNSLKPEDSAVYYCAAVTRDYRNERRRQRYFYWGQGTQVTVSS | high polyreactivity
19 | QVQLVESGGGLVQAGRSLRLSCAASGLTFGQYAMGWYRQAPGIERELVAAMNWSGDGTYYADSVKGRFTISRDNAKNTVYLQMKSLKPEDTAVYYCNAGGRRYYYIGYDYWGQGTQLTVSS | low polyreactivity
20 | QVQLVESGGGLVQAGRSLRLSCAASGLTFRVYPMGWYRQAPGKDRELVAAITGGGGSTYADSVKGRFTISRDNAKNTVYLQMYSLKPEDTAVSYCNKKGYYYKFDYWGQGTQVTVSS | low polyreactivity
21 | QVQLVESGGGLVQAGRSLRLSCAASGRIFNYYSMGWYRQAPGKERELVAAISSGGSTYYADSVKGRFTISRDYAKNTVYLQMNSLKPEDTAVYYCAAAYGDYGYWGQGTLVTVSS | high polyreactivity
22 | QVQLVESGGGLVQAGRSLRLSCAASGRIFRGYAMGWYRPAPGIERELVAAISWSGGSTNYADSVKGRFTISRDNAKNSVYLQMNSLKPEDTEVYYCAARAYRVANAGYTYWGQGTQLTVSS | high polyreactivity

Row | Sequence | polyreactivity (PSR sort gate)
23 | QVQLVESGGGLVQAGRSLRLSCAASGRIFVPYVMGWYRQAPGKERELVASISDSDTSTYYADSVKGRFTISRDNAKNTVYVQMNSLKPEDTAVYYCNVDYWGQGTQVTVSS | low polyreactivity
24 | QVQLVESGGGLVQAGRSLRLSCAASGRISTRYAMGWYRQAPGKERELVAAITIGTDTTYADSVKGRFTISRDNAKNTVYLQMNTLKPEDTAVYYCAAERYILARFEYWGQGTQVTVSS | low polyreactivity
25 | QVQLVESGGGLVQAGRSLRLSCAASGRTSAYYAMGWYRQPPGKERELVAGITRGGRTNYADSVKGRFTISRDNAKNTVYLQLNSLKPEDTAVYYCAAKYVYYLNSRTSGYWGQGSQVTVSS | high polyreactivity
26 | QVQLVESGGGLVQAGRSLRLSCAASGSIFAWYGMGWYRQAPGKERELFAAISTDGSTNYADSVKGRFTISRDNAKNSVYLQMISLKREDTAVYYCAKKSSLYYPERFDYWGQGTQGTVSS | low polyreactivity
27 | QVQLVESGGGLVQAGRSLRLSCAASGSTFKVYAMGWYRQAPGKERELVAAISASDGSTYYPDSVKGRFTISRDNAKKTVYVQMYRLKPEDTAVYYFAAVLYSDKATYDYWGQGTQVTVSS | low polyreactivity
28 | QVQLVESGGGLVQAGRSLRLSCAASGSTFPVNTMGWYRQAPGKDRELVAAITKNGANTYYADSVKGRFTISRDNAKNTVYLQMNSLKPEDTAVYYCAARYVYGKSYSRWLVELDYWGQGTQVTVSS | low polyreactivity
29 | QVQLVESGGGLVQAGRSLRLSCAASGSTFYAYTMGWYRKAPGKERELVAGISRRGGTTYYADSVKGRFTISRDNAKNTVYLQMNSLKPEDTAVYHCATRSWELGDYWGQGTQVTVSS | low polyreactivity
30 | QVQLVESGGGLVQAGRSLRLSCAASGSTFYGYAMGWYRQPPGKERELVAAITSSGGSTYYADSVKGRFTISRDNAKITVYVQLNSLKPEDTAVYYCNAKRAPWGTLYNYWGQGTQVTVSS | high polyreactivity
31 | QVQLVESGGGLVQAGRSLRLSCAASGSTILYYAMGWYRQAHGKERELVARITTRGSRTYYADSVKGRFTISRDNAKNTVYLQMNSLKPEDTAVYYCNKVRPGYGVTYLVGYWGQGTQVTVSS | high polyreactivity
32 | QVQLVESGGGLVQAGRSLRLSCAASGSTLLWNAMGWYRQAPGKERELVAVISWSGGSTYYGDSVKGRFTISRDNAKNTVYLQMNSLKPEDTAVYYCAHDYDGYVWDTEYDYWGQGTQVTVSS | low polyreactivity
33 | QVQLVESGGGLVQAGRSLRLSCAASGSTYAKYAMGWYRQAPGKEREVVAVISRTGTITRYADSEKGRFTISRDNAKNTVYLQMNSLKPEDTAVYYCAATIRAYNQHGFLYPYYYWGQGNQVTVSS | high polyreactivity
34 | QVQLVESGGGLVQAGRSLRLSCAASGYIFDTNAMGWYRQAPGKERELVAAITKSGGSTYYADSVKGRFTISRDNAKNTVYLHMNSLKPEDTAVYYCAARGTSKRWSLYDYWGQGTQVTVSS | low polyreactivity
35 | QVQLVESGGGLVQAGRSLRLSCAAYGYTFEFYAMGWYRQAPGKEREFVAGINSSGVTTYYADSVKGRFTIARDNAKYTVYLQMNSLKPVYSAVYYCAATDVVYTWFFLVYIPYDYWGQGTQVTVSS | low polyreactivity
36 | QVQLVESGGGLVQAGRTLRLSCAASGNIFDLNAMGWYRPAPGKERELVAAIDRGGGSTYYADSVKGRFTISRDNATNTVYLHMNSLKTEDTAVYYCSAVDQESNPAGGYWGQGSQVTVSS | low polyreactivity
37 | QVQLVESGGGLVQAGSSLRLSCAASGRTFTGNAMGRYRQAPGKERELVADISSDGSTNYADSVKGRFTISRDNAKNTVYLQMNSLKPEDTAVYYCAADPFWTYYIDYDYWGQGTQVTVSS | low polyreactivity
38 | QVQLVESGGGLVQAGSSLRLSCAASGSTLRTNAMGWYRQAPGKEREFVADISKRGGRTYYADSVKGRFTISRDNAKNTVYLQMNSLKPEDTAVYYCAKLVSLAGRIYGYWGQGTQVTVSS | high polyreactivity
39 | QVQLVESGGGLVQAGVILRLSCAASGLIFGLYAMGWYRQAPGKERELVAAISYRTDSTYADSVKGRFTISRDNAKNTVYLQMNSLKPEDTAVYYCAADLRVSVRYYYWGQGTQVTVSS | low polyreactivity
40 | QVQLVESGGGLVQAGVRLRLSCPASGFIFDWYTMGWYRQAPGKERELVAAITIGGSTDYADSVKGRFTISRDNAKNTVYLQMNSLKPEDTAVYYCNALWYLSGTWYDYWGQGTQVTVSS | low polyreactivity
41 | QVQLVESGGGLVQAGVSLLISCAASGSTFLLNTMGWYIQAPGKERELVAAISSITGDTYYADSVKVRFTISRDNAKNNDYLQMNSLKPEDTAVYYCAARYYLSSQGWTYDYWGQGTQVTVSS | low polyreactivity
42 | QVQLVESGGGLVQAGVSLLLSCAASGSTFGYNAMVCYRQAPGKERELVAAITSSGSTTYYADSVKGRFTISRDNAKNSVYLQLNSLKREDTAVYYCNAPAYYLHYGLYARYDYWGQGTQVTVSS | low polyreactivity
43 | QVQLVESGGGLVQAGVSLRISCAASGGTLNGYAMGWYRQSPGKERELVAVITSGGSTNYADSVKGLFTISRDNAKNTVYLQMNSLKPEDTAVYYCAVRPYELHRLADQPGGDDYWGQGTQVTVSS | low polyreactivity

From the nanobody polyreactivity screen of Harvey et al. (2022)
